Source: patent US20040058394A1 (Biogen, published 2004)
Numbering of substitutions follows the chain as printed. Names and notes keep the numbering of the source.

B1: L2/V93A H2 (VL#2 with the V93A variant of VH#2) (antibody, V domains shown)
VH: EVQLVESGGGLVKPGGSLRLSCAASGFTFSDYYMYWFRQAPGKGLEWVATISDGGSYTYYPDSVKGRFTISRDNAKNSLYLQMSSLRAEDTAVYYCAREENGNFYYFDYWGQGTTVTVSS
VL: DIQMTQSPSSLSASVGDRVTITCKAGQDIKSYLSWYQQKPWKAPKILIYYATRLADGVPSRFSGSGSGTDYTLTISSLQPEDFATYYCLQHGESPWTFGGGTKLEIK
notes: Human IgG1 / kappa constant regions; also called pAND072/pAND090
B2: chimeric CBE11 (chCBE11) (antibody, V domains shown)
VH: B1 VH with R19K, A40T, G42E, G44R, S78N, R87K, A88S, V93M, A97V
VL: DIKMTQSPSSMYASLGERVTITCKAGQDIKSYLSWYQQKPWKSPKILIYYATRLADGVPSRFSGSGSGQDYSLTISSLESDDTATYYCLQHGESPWTFGGGTKLEIK
notes: the latter is followed; also called pEAG982/pEAG983
B3: huCBE11 #4 (VL#3 with VH#4) (antibody, human IgG1, V domains shown)
VH: B1 VH
VL: DIQMTQSPSSLSASVGDRVTITCKAGQDIKSYLSWYQQKPGKAPKLLIYYATRLADGVPSRFSGSGSGTDYTLTISSLQPEDFATYYCLQHGESPWTFGGGTKLEIKR
notes: Full mature chains with human IgG1 and kappa constant domains; also called hCBE11; pAND076/pAND090
B4: L3/H2 (VL#3 with VH#2) (antibody, human IgG1, V domains shown)
VH: B1 VH with A97V
VL: B1 VL with W41G, I46L
notes: Mix and match co-transfection; Human IgG1 / kappa constant regions; also called pAND076/pAND073
B5: huCBE11 #2 (VL#2 with VH#2) (antibody, human IgG1, V domains shown)
VH: B1 VH with A97V
VL: B1 VL
notes: also called huCBE#2; pAND072/pAND073
B6: huCBE11 #1 (VL#1 with VH#1) (antibody, human IgG1, V domains shown)
VH: B1 VH with A40T, V93M, A97V
VL: B1 VL with Q3K, T69Q
notes: also called pAND068/pAND069
B7: huCBE11 #3 (VL#3 with VH#3) (antibody, human IgG1, V domains shown)
VH: B1 VH with F37V
VL: B1 VL with W41G, I46L
notes: also called pAND076/pAND077
B8: L2/H3 (VL#2 with VH#3) (antibody, human IgG1, V domains shown)
VH: B1 VH with F37V
VL: B1 VL
notes: Mix and match co-transfection; Human IgG1 / kappa constant regions; also called pAND072/pAND077

What follows are binders tested against T1, lymphotoxin beta receptor (LT-β-R) (human, UniProt P36941 31-435) (assay: FACS staining of HT-29 cells with conditioned medium, PE anti-human IgG).
T1 construct: whole, on cells; also called LT-β receptor
Procedure: Expression vectors were co-transfected into 293-EBNA cells and transfected cells were tested for antibody secretion and specificity (empty vector-transfected cells served as negative control). […] To examine the individual contributions of each of these changes, new heavy chain expression vectors were constructed. Plasmid pAND089, the F37V variant of VH#2, was made by subcloning the 311 bp NotI-PstI fragment from pAND075, the 126 bp PstI-HindIII fragment from pAND071, and the 1.21 kb HindIII-NotI fragment from the plasmid pEAG964 into the NotI site of the pCEP4 EBV expression vector-derived plasmid pCH269. Plasmid pAND090, the V93A variant of VH#2, was made by subcloning the 311 bp NotI-PstI fragment from pAND071, the 126 bp PstI-HindIII fragment from pAND075, and the 1.21 kb HindIII-NotI fragment from the plasmid pEAG964 into the NotI site of the pCEP4 EBV expression vector-derived plasmid pCH269. These H2/H3 chimeric heavy chains were co-transfected into 293-EBNA cells with VL#2 or VL#3. […] The pAND076 and pAND090 pairing was designated huCBE11 #4 (Table 1 supra).
Conditioned medium from transiently transfected cells was used to stain HT-29 cells by incubating for 30 min on ice, washing cells twice with FACS buffer (PBS with 5% FBS and 0.05% sodium azide), staining with PE-conjugated anti-human IgG (H+L), Jackson ImmunoResearch Laboratories, Inc., for 30 min on ice in FACS buffer, washing cells twice with FACS buffer, and resuspending in FACS buffer for analysis.

T1 sequence (P36941 31-435): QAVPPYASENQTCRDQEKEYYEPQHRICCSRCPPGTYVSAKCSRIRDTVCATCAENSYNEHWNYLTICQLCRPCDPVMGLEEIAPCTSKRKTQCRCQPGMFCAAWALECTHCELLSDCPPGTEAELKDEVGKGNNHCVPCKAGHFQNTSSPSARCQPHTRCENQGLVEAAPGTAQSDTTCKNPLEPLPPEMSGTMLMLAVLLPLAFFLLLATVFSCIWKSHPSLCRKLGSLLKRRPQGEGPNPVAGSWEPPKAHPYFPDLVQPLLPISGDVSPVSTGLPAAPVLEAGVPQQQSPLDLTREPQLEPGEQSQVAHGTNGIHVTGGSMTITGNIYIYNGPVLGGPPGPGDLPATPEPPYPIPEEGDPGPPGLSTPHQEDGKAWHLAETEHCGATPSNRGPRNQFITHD

Binder | Relative MFI
B1 | 0.75 MFI normalized to chCBE11
B2 | 1 MFI normalized to chCBE11
B3 | 1 MFI normalized to chCBE11
B4 | 1 MFI normalized to chCBE11
B5 | 1 MFI normalized to chCBE11
B6 | 1 MFI normalized to chCBE11
B7 | 0.62 MFI normalized to chCBE11
B8 | 0.42 MFI normalized to chCBE11

These binders were tested against T1, lymphotoxin beta receptor (LT-β-R) (assay: FACS titration on HT-29 cells, 4°C, non-specific binding subtracted, four parameter fit (functional affinity)).
Procedure: HuCBE11 #4 anti-LTβR antibody and humanized anti-CD40L as a negative control were diluted in PBS and a 12 point serial 1:4 dilution was made to a final concentration range of 2.37 pM-10 μM. 100 μL cell suspension and 100 μL antibody dilution were added together to each well of a 96 well V-bottom microtiter plate. The antibody and the cells were incubated at 4° C. for 2 hours. The plate was centrifuiged at 1000 rpm (110×g) for 10 minutes at 4° C. The supernatant was discarded and the cell pellet was washed with cold PBS six times.
Goat-anti human IgG-phycoerythrin conjugate (Jackson Immunoresearch) was diluted 1:100 in PBS and 200 μL was added to each well. The cells were incubated with this secondary antibody for one hour at 4° C., centrifuged as described above, and washed once in cold PBS. The cells were then transferred to polystyrene test tubes. Fluorescence intensity was measured on a FACS Calibur instrument (Beckton Dickinson).
These specific fluorescence intensity values were then plotted against huCBE11 #4 concentrations on a log scale. The resulting curve is bell shaped and symmetrical, and reflects self-inhibition of the antibody binding at high concentrations. The left half of this curve was fit to a four parameter equation to find the functional affinity of the antibody. The resulting curve fit gives an EC₅₀ value of 60 pM for the huCBE11 #4 binding to HT-29 cells.

Binder | EC50 [nM]
B3 | 0.06
